The record followed here is IntAct's records for PubMed 39243984.

First the molecules themselves.
B1: Mothers against decapentaplegic homolog 4 (Homo sapiens), Q13485 (parent)
chain: MDNMSITNTPTSNDACLSIVHSLMCHRQGGESETFAKRAIESLVKKLKEKKDELDSLITAITTNGAHPSKCVTIQRTLDGRLQVAGRKGFPHVIYARLWRWPDLHKNELKHVKYCQYAFDLKCDSVCVNPYHYERVVSPGIDLSGLTLQSNAPSSMMVKDEYVHDFEGQPSLSTEGHSIQTIQHPPSNRASTETYSTPALLAPSESNATSTANFPNIPVASTSQPASILGGSHSEGLLQIASGPQPGQQQNGFTGQPATYHHNSTTTWTGSRTAPYTPNLPHHQNGHLQHHPPMPPHPGHYWPVHNELAFQPPISNHPAPEYWCSIAYFEMDVQVGETFKVPSSCPIVTVDGYVDPSGGDRFCLGQLSNVHRTEAIERARLHIGKGVQLECKGEGDVWVRCLSDHAVFVQSYYLDREAGRAPGDAVHKIYPSAYIKVFDLRQCHRQMQQQAATAQAAAAAQAAAVAGNIPGPGSVGGIAPAISLSAAAGIGVDDLRRLCILRMSFVKGWGPDYPRQSIKETPCWIEIHLHRALQLLDEVLHTMPIADPQPLD

In one experiment the parent is B1. As to conditions: with smad3_human SMAD3, P84022.
Chain of smad3_human SMAD3, P84022 (P84022 whole entry, looked up): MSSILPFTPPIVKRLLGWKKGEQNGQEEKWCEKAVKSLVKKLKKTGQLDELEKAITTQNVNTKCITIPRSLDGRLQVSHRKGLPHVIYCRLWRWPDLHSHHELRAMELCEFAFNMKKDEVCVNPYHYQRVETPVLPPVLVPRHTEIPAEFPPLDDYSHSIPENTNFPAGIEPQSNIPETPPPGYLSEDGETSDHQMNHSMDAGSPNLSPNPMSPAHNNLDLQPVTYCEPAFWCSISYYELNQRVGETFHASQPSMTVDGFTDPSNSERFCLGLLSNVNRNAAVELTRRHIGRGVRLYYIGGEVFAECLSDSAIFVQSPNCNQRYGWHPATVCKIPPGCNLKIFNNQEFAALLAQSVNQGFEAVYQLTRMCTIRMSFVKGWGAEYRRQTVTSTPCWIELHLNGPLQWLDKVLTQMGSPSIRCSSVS
Turning to R361H, the “effect of a mutation on the interaction” value is listed as “decreasing interaction strength”. Still for that read-out and setting: the result for R361C reads “decreasing interaction strength”.

The variants in a further experiment derive from B1. The conditions noted are these: with smad3_human SMAD3, P84022. The source holds these as a separate data set.
Regarding I500V, the “effect of a mutation on the interaction” value was “increasing interaction strength”.
